# Key:
# [1] = target: recombinant human IL-1B (human) (UniProt P01584); test: cell-based or functional assay
# [2] = target: Endogenous human IL-1B (THP1 supernatants) (human) (UniProt P01584); test: cell-based or functional assay
substance,measurement,setting,value
ACZ885 (disclosed in WO 2002/016436) (antibody),"IC50, rec. human IL-1 B, HEK blue",[1],0.068 nM
same,"IC50, rec. human IL-1 B, MRC-5 (IL-6 production)",[1],0.032 nM
same,"IC90, rec. human IL-1 B, HEK blue",[1],0.503 nM
same,"IC90, rec. human IL-1 B, MRC-5 (IL-6 production)",[1],0.449 nM
same,"IC90, Endogenous human IL-1 B (THP1 supernatants), HEK blue",[2],0.292 nM
